As a reminder, the stoichiometry N is the number of molecules, sites or subunits per partner or assembly.

Data on four substances can be found in doi:10.1101/2021.06.15.447100.

Assay [1] addresses BG505 SOSIP.664 (HIV-1 (clade A, BG505)). Kind of assay: SEC. On the technique in general: SEC sorts molecules by how far they enter the pores of the column.
Assay [2] concerns the target C.1086 NFL gp140 (Native Flexibly Linked with I559P) (HIV-1 (clade C, C.1086)). As to the kind of experiment: SEC.
Assay [3] has as its target C.1086 SOSIP gp140 (HIV-1 (clade C, C.1086)). Kind of assay: SEC.
The target in assay [4] is C.1086 UFO gp140 (Uncleaved preFusion Optimized, no disulfide linkage between A501 and T605) (HIV-1 (clade C, C.1086)). As to the kind of experiment: SEC.
Assay [5] has the same target. Kind of assay: negative stain electron microscopy.

With BG505 SOSIP.664 (natural protein), the stoichiometry N in assay [1] turned out to be 3. Consider “C.1086 NFL gp140 (Native Flexibly Linked with I559P) (natural protein)”, for which the stoichiometry N in assay [2] turned out to be 3. In assay [3], C.1086 SOSIP gp140 (natural protein) showed a stoichiometry N of 3. As to “C.1086 UFO gp140 (Uncleaved preFusion Optimized, no disulfide linkage between A501 and T605) (natural protein)”, the stoichiometry N in assay [4] and in assay [5] was 3 each time.
